The results in this text go back to EP4582447A1 (Quaerite Biopharm Research (Beijing) Co., Ltd., dated 2025).

Like-named read-outs stand apart in the source and are kept apart here.

For orientation: IC50 means the concentration that gives 50% inhibition. Low readings indicate higher potency, high ones lower potency. As a reminder, the Kd is the concentration at which binding is half-saturated. Read a high Kd as weaker binding. Usually koff stands for a measure of how fast the partners let go of each other. One may read the kon as the rate constant with which the complex forms. A high value points to faster complex formation. What is called EC50 is the concentration giving half of the maximal effect.

The target of assay [1] is T1, Human VEGFA165 (human, UniProt P15692-4 27-191).
T1 construct: treated as the same molecule; also called antigen VEGFA
T1 sequence (P15692 other isoform, or with tags, fused parts or gaps limits assumed): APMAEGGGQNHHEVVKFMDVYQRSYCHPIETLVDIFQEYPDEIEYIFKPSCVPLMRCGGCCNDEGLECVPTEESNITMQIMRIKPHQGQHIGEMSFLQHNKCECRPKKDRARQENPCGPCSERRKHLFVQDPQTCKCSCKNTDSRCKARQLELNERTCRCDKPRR
In words: competition ELISA on coated VEGFA, competitor VEGFR2-ECD-Fc 1 nM. A general note: In an ELISA, binding on a coated surface is turned into a signal by an enzyme label.

Assay [2] addresses T1, Human VEGFA165. The assay is described as follows: phage ELISA, VEGFA coated 0.5 µg/mL, anti-M13(HRP).
Assay [3] addresses T1, Human VEGFA165. The assay is described as follows: SPR, VEGFA165 on CM5. Background: SPR reads the build-up and loss of mass on a sensor chip optically.
Assay [4] concerns the target T1, Human VEGFA165. The assay is described as follows: SPR Biacore 8K, VEGFA165 amine-coupled on CM5, nanobody as analyte, 1:1 model.
Assay [5] has as its target T1, Human VEGFA165. The assay is described as follows: ELISA, VEGFA coated 0.3 µg/mL, anti-His detection.
Assay [6] has as its target 3% milk powder (negative control). The assay is described as follows: phage ELISA, 3% milk powder coated (negative control), anti-M13(HRP).
The target of assay [7] is T1, Human VEGFA165. In words: ELISA, VEGFA coated 0.3 µg/mL, anti-His detection. The source holds these as a separate data set.
The target in assay [8] is T1, Human VEGFA165. The assay is described as follows: competition ELISA on coated VEGFA, competitor VEGFR2-ECD-Fc 2 nM.
In assay [9] the target is T1, Human VEGFA165. The assay is described as follows: cell-based or functional assay.
The target in assay [10] is T1, Human VEGFA165. In words: competition ELISA on coated VEGFA, competitor VEGFR2-ECD-Fc 1 nM. The source holds these as a separate data set.

B1: V40 (VHH)
VHH: QLQLVESGGGSVQPGGSLRLSCEVSGRTFTSYTMGWFRQAPGKEREFVVAISKGGYKYNAVSLEARFTISKDNTKNTVYLQMNSLKPEDTAVYYCAGTRAYGSSRLRLAKTYEYWGQGTQVTVSS
notes: Purified with C-terminal GGGGS-6×His
Regarding B1, in the assay with Human VEGFA165 [1], the IC50 is 7.48 nM and the “Maximum inhibition rate (%)” value came out at 92.2%. The OD450 with Human VEGFA165 [2] turned out to be 3.11 OD450. The “fold difference of KD from the positive control BI-VEGF ab” value in the assay with Human VEGFA165 [3] is under 3 fold. In the assay with Human VEGFA165 [4], the Kd came to 0.305 nM, the koff is 0.000108 s⁻¹ and the kon came to 353000 M⁻¹ s⁻¹. Also, in the assay with Human VEGFA165 [5], the EC50 amounted to 0.84 nM. This molecule registered an OD450 in assay [6] of 0.0362 OD450. The EC50 in the assay with Human VEGFA165 [7] worked out at 2.03 nM.

B2: V15-2m (VHH)
VHH: EVQLVESGGGLVQPGGSLRLSCAASGRTFASYTMGWFRQAPGKEREFVVAISKGGYKYDSVSLEARFTISRDNSKNTVYLQMNSLRPEDTAVYYCAGTRAYGSSRLRLAETYEYWGQGTLVTVSS
notes: Humanized V15
Regarding B2, in the assay with Human VEGFA165 [8], the IC50 worked out at 31.7 nM and the “Maximum inhibition rate (%)” value was determined as 84.8%. Also, a half-maximal effect with Human VEGFA165 [7] (EC50) was put at 2.04 nM.

B3: V40-4H-2m (VHH)
VHH: EVQLVESGGGLVQPGGSLRLSCAASGRTFTSYTMGWFRQAPGKEREFVVAISKGGYKYNAVSLEARFTISRDNSKNTVYLQMNSLRPEDTAVYYCAATRAYGSSRLRLAKTYEYWGQGTLVTVSS
notes: Humanized V40
As to B3, the EC50 with Human VEGFA165 [7] was 2.82 nM.

B4: V15-4m (VHH)
VHH: EVQLVESGGGLVQPGGSLRLSCAASGRTFASYTMGWFRQAPGKEREFVVAISKGGYKYDSVSLEARFTISRDNAKNTVYLQMNSLRPEDTAVYYCAGTRAYGSSRLRLAETYEYWGQGTLVTVSS
notes: Humanized V15
On to B4, for which, in the assay with Human VEGFA165 [8], the IC50 amounted to 26 nM and the “Maximum inhibition rate (%)” value is 87.2%. This molecule also registered a concentration giving a half-maximal response (EC50) with Human VEGFA165 [7] of 1.42 nM.

B5: V30 (VHH)
VHH: QLQLVESGGGSVQPGGSLRLSCEVSGRTFSSYTMGWFRQAPGKGREFVVAISKGGYKYDAVSLEARFTISKDNTKNTVYLQMNSLKPEDTAVYYCAATRAYGSSRLRLAKTYEYWGQGTQVTVSS
notes: Purified with C-terminal GGGGS-6×His; also called candidate antibody V30
As for B5, in the assay with Human VEGFA165 [1], the IC50 stood at 3.54 nM and the “Maximum inhibition rate (%)” value is 96.5%. For the same molecule, the OD450 with Human VEGFA165 [2] came out at 2.68 OD450. For the same molecule, in the assay with Human VEGFA165 [9], the “IC50 (pM), inhibition of VEGFA-stimulated HUVEC proliferation (CCK-8)” value is 1270 pM and the “Maximum inhibition rate (%) of HUVEC proliferation” value was 87.4%. Moreover, the “fold difference of KD from the positive control BI-VEGF ab” value in the assay with Human VEGFA165 [3] was under 3 fold. Also, in the assay with Human VEGFA165 [4], the Kd is 0.214 nM, the koff was 0.000136 s⁻¹ and the kon was 635000 M⁻¹ s⁻¹. Also, in the assay with Human VEGFA165 [5], the concentration giving a half-maximal response (EC50) was 0.6 nM. In addition, the OD450 in assay [6] was 0.0436 OD450. In addition, in the assay with Human VEGFA165 [10], the IC50 was 5.72 nM and the “Maximum inhibition rate (%)” value was 94.8%.

B6: V40-3H-4m (VHH)
VHH: EVQLVESGGGLVQPGGSLRLSCAASGRTFSSYTMGWFRQAPGKEREFVVAISKGGYKYNAVSLEARFTISRDNAKNTVYLQMNSLRPEDTAVYYCASTRAYGSSRLRLAKTYEYWGQGTLVTVSS
notes: Humanized V40
Consider B6, for which, in the assay with Human VEGFA165 [7], a half-maximal response (EC50) required 2.05 nM.

B7: V40-4H-4m (VHH)
VHH: EVQLVESGGGLVQPGGSLRLSCAASGRTFTSYTMGWFRQAPGKEREFVVAISKGGYKYNAVSLEARFTISRDNAKNTVYLQMNSLRPEDTAVYYCASTRAYGSSRLRLAKTYEYWGQGTLVTVSS
notes: Humanized V40
In the case of B7, the EC50 with Human VEGFA165 [7] amounted to 2.34 nM.

B8: V30-3H-2m (VHH)
VHH: EVQLVESGGGLVQPGGSLRLSCAASGRTFSSYTMGWFRQAPGKGREFVVAISKGGYKYDAVSLEARFTISRDNSKNTVYLQMNSLRPEDTAVYYCAATRAYGSSRLRLAKTYEYWGQGTLVTVSS
notes: Humanized V30
B8 gave an EC50 with Human VEGFA165 [7] of 1.38 nM.

B9: V40-3H-2m (VHH)
VHH: EVQLVESGGGLVQPGGSLRLSCAASGRTFSSYTMGWFRQAPGKEREFVVAISKGGYKYNAVSLEARFTISRDNSKNTVYLQMNSLRPEDTAVYYCAATRAYGSSRLRLAKTYEYWGQGTLVTVSS
notes: Humanized V40
B9: a half-maximal response with Human VEGFA165 [7] (EC50) required 1.64 nM.
